This note sets out measurements from US7923230.

The target in one assay is Amyloid beta (1-42). As to the kind of experiment: cell-based or functional assay.
Another assay addresses Amyloid beta (1-40). The assay is described as follows: SPR (BIAcore); SLF-CR pre-incubated with FKBP passed over immobilized Aβ(1-40); SLF-CR alone gave ~140 RUs; ternary FKBP/drug/Aβ complex. In general terms: SPR reads the build-up and loss of mass on a sensor chip optically.

Sequence of Amyloid beta (1-40) (peptide, as listed by the source): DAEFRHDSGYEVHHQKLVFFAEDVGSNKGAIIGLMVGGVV
Sequence of Amyloid beta (1-42) (peptide, as listed by the source): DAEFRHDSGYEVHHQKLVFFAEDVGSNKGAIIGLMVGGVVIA

Substance “FKBP12 with the bifunctional compound SLF-Benz-CR (from UniProt P62942 2-108) (enzyme)” displayed an IC50 in thioflavin T aggregation assay (drug concentration, FKBP 1 uM) with Amyloid beta (1-42) of 50 nM.

Substance “FKBP12 pre-incubated with the bifunctional compound SLF-CR (SLF-Congo red) (from UniProt P62942 2-108) (enzyme)” showed an SPR response in the assay with Amyloid beta (1-40) of 230 RU.
